Columns and labels:
HBsAg ayw = HBsAg ayw (hepatitis B virus); test: ELISA
HBsAg adr = test: ELISA

B1: HBC34 (antibody, V domains shown)
VH: ELQLVESGGGWVQPGGSQRLSCAASGRIFRSFYMSWVRQAPGKGLEWVATINQDGSEKLYVDSVKGRFTISRDNAKNSLFLQMNNLRVEDTAVYYCAAWSGNSGGMDVWGQGTTVSVSS
VL: SYELTQPPSVSVSPGQTVSIPCSGDKLGNKNVCWFQHKPGQSPVLVIYEVKYRPSGIPERFSGSNSGNTATLTISGTQAMDEAAYFCQTWDSTTVVFGGGTRLTVL
EC50 (HBsAg ayw): 10 ng/mL
EC50 (HBsAg adr): 6 ng/mL
